# T1: PYCO1 (pyrenoid component 1), recombinant, residues 31 to 592 (Phaeodactylum tricornutum)
# T1 chain: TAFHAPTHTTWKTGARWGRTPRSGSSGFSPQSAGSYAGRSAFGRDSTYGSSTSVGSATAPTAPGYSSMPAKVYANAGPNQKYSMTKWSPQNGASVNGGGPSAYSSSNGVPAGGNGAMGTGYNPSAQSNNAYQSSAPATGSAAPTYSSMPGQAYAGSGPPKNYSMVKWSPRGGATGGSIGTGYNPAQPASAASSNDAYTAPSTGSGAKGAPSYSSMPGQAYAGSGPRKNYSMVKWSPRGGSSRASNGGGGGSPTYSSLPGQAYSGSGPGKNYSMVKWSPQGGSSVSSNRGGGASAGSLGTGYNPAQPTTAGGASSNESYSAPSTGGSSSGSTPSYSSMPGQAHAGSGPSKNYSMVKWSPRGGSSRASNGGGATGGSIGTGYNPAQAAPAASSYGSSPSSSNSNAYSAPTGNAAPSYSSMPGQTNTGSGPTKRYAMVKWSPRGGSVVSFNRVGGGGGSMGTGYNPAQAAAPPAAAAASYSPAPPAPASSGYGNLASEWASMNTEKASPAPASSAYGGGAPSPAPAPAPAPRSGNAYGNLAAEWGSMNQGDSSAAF
# Molecular target: T1, PYCO1 (pyrenoid component 1), …
# Assay: co-sedimentation; heterotypic: Rubisco and PYCO1 (or variant) mixed at various ratios, 20 mM Tris-HCl pH 8.0, 150 mM NaCl; condensates sedimented and analysed
# Details: both partners purified
binder,measurement,value
"Phaeodactylum tricornutum Rubisco (L8S8 holoenzyme) (complex, Rubisco large subunit (LSU) of Phaeodactylum tricornutum, Form ID; Rubisco small subunit (SSU) of Phaeodactylum tricornutum, Form ID; For microscopy spiked with 0.3% or 0.6% atto-594-labeled PtRubisco; also called PtRubisco; diatom Rubisco; source: purified directly from diatoms (P. tricornutum); endogenous, soluble algal lysate (immunoprecipitation); copies: 8 + 8) chain 1: MSQSVSERTRIKSDRYESGVIPYAKMGYWDAAYAVKNTDVLALFRITPQPGVDPVEAAAAVAGESSTATWTVVWTDLLTACDRYRAKAYRVDPVPNTTDQYFAFIAYECDLFEEGSLANLTASIIGNVFGFKAVSALRLEDMRIPHSYLKTFQGPATGVIVERERLNKYGIPLLGATVKPKLGLSGKNYGRVVYEGLKGGLDFLKDDENINSQPFMRWRERFLYCMEGINRASAATGETKGSYLNITAGTMEEVYKRAEYAKTVGSIVVMIDLVMGYTAIQSAAIWARDNDLILHLHRAGNSTYARQKNHGINFRVICKWMRMCGVDHIHAGTVVGKLEGDPLMIKGFYDTLLLTHLNVNLPYGIFFEMTWASLRKCMPVASGGIHCGQMHQLVHYLGDDVVLQFGGGTIGHPDGIQAGATANRVALEAMILARNEGADYFNSDIGPQILRNAAKTCGPLQTALDLWKDISFNYTSTDTSDFSVTPTANV chain 2: MRLTQGCFSFLPDLTDQQIEKQIAYCITKGWAMNVEWTDDPHPRNSYWELWGLPLFDVKDPASVMFELREARKSCAAGYIRINAFNAAYGTESCVMSFIVNRPSNEPGFYLERQELEGRRIAYTTKSYSVQANPEGGRY",stoichiometry N,3 Rubisco (L8S8) per PYCO1

# From PMC10288592, “A linker protein from a red-type pyrenoid phase separates with Rubisco via oligomerizing sticker motifs” (Proceedings of the National Academy of Sciences of the …, 2023)
